Source: PMC12093943, “The TetR-like regulator Sco4385 and Crp-like regulator Sco3571 modulate heterologous production of antibiotics in Streptomyces coelicolor M512” (Applied and Environmental Microbiology, 2025)

Target: the molecule itself
Assay: SEC-MALS; Superose 6 increase 10/300 GL, room temperature, running buffer 50 mM Tris-HCl (pH 7.5), 250 mM NaCl, flow rate 0.4 mL/minute; MiniDAWN Treos

B1: TetR-family regulator Sco4385 (His-tagged) (natural protein, Streptomyces coelicolor M512, UniProt Q9K3V9 1-202, looked up)
chain: MNAADRTERVPKQDRSRATRQRLLEAAVACLAERGWAGSTVSVVAEHAGVSRGAAQHHFPTREDLFTAAVEYVAEERSIALRALFPEGAAADDRRAVVAALVDLYTGPLFRAALHLWVAASNEEQLRGRVTELEARVGRESHRIAVELLGADETRPGARETVQGLLDMARGLGLANLLTDDGARRERVVEQWARLLDAALAQ
notes: TetR-family regulator Sco4385 of Streptomyces coelicolor M512; Expressed from the vector pHis8 (plasmid pSW21); No tag cleavage is described; also called TFR Sco4385; TetR-type regulator Sco4385; source: E. coli BL21 DE3, purified (Ni-NTA chromatography, size exclusion chromatography)
stoichiometry N: 2
